Results published in patent publication US20130005646A1 (Novo Nordisk, published 2013).
Starred links: 1 amine or outer side, 2 acyl side, 3 side chain; linkers in the order of their positions; H or OH if unused. Positions of bridges follow the written chain, without caps; N, C: chain ends. *: point of attachment. C20 diacid = O=C(O)CCCCCCCCCCCCCCCCCCC(=O)*; 19‑carboxyheptadecanoyl = not defined here; C18 diacid = O=C(O)CCCCCCCCCCCCCCCCC(=O)*; γGlu = O=C(O)[C@H](CCC(=O)[*:2])N[*:1]; AEEA = NCCOCCOCC(=O)O

Experiments:
[1] = target: T1, human amylin 3(a) receptor (human calcitonin receptor + RAMP-3) (human, UniProt P30988 25-474; O60896 24-148); experiment: cell-based or functional assay
T1 sequence (looked up) 1: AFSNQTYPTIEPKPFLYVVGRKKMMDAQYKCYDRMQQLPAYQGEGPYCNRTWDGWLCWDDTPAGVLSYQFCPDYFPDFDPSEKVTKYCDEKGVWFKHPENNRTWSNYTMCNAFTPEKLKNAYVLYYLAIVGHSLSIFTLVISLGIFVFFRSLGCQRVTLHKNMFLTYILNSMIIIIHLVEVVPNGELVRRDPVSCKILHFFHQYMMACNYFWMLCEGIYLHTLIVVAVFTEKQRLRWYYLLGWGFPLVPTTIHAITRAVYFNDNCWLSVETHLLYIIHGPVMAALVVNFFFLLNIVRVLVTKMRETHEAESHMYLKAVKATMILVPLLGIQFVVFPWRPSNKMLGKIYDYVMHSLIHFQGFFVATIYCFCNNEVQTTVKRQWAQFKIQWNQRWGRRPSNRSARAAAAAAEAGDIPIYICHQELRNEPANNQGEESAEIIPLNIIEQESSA
T1 sequence (looked up) 2: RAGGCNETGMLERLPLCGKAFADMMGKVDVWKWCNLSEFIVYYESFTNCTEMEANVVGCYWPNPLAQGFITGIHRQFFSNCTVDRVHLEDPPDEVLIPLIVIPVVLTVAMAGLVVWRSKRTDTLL

[2] = target: T2, human calcitonin (a) receptor (human, UniProt P30988 25-474); experiment: cell-based or functional assay
T2 sequence (looked up): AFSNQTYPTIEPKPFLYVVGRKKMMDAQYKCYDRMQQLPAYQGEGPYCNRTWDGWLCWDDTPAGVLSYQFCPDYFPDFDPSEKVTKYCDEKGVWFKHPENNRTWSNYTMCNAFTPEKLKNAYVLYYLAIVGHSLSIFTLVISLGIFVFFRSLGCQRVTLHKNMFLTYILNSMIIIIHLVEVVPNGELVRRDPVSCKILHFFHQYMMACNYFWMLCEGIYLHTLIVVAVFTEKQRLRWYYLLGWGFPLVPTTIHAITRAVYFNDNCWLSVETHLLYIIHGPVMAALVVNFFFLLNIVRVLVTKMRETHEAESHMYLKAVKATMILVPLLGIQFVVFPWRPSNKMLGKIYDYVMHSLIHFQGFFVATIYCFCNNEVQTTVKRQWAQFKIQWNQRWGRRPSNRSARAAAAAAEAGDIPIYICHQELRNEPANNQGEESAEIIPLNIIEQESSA

B1: N-alpha-[(S)-4-Carboxy-4-(19-carboxynonadecanoylamino)butyryl]-His-His-[His1,Glu14,His17,His29]-pramlintide (peptide)
peptide: {C20 diacid-γGlu}-HHHCNTATCATQRLAEFLHHSSNNFGPILPHTNVGSNTY-NH2
modifications: disulfide 4-9
SMILES: CC[C@H](C)[C@H](NC(=O)[C@@H]1CCCN1C(=O)CNC(=O)[C@H](Cc1ccccc1)NC(=O)[C@H](CC(N)=O)NC(=O)[C@H](CC(N)=O)NC(=O)[C@H](CO)NC(=O)[C@H](CO)NC(=O)[C@H](Cc1c[nH]cn1)NC(=O)[C@H](Cc1c[nH]cn1)NC(=O)[C@H](CC(C)C)NC(=O)[C@H](Cc1ccccc1)NC(=O)[C@H](CCC(=O)O)NC(=O)[C@H](C)NC(=O)[C@H](CC(C)C)NC(=O)[C@H](CCCNC(=N)N)NC(=O)[C@H](CCC(N)=O)NC(=O)[C@@H](NC(=O)[C@H](C)NC(=O)[C@@H]1CSSC[C@H](NC(=O)[C@H](Cc2c[nH]cn2)NC(=O)[C@H](Cc2c[nH]cn2)NC(=O)[C@H](Cc2c[nH]cn2)NC(=O)CC[C@H](NC(=O)CCCCCCCCCCCCCCCCCCC(=O)O)C(=O)O)C(=O)N[C@@H](CC(N)=O)C(=O)N[C@@H]([C@@H](C)O)C(=O)N[C@@H](C)C(=O)N[C@@H]([C@@H](C)O)C(=O)N1)[C@@H](C)O)C(=O)N[C@@H](CC(C)C)C(=O)N1CCC[C@H]1C(=O)N[C@@H](Cc1c[nH]cn1)C(=O)N[C@H](C(=O)N[C@@H](CC(N)=O)C(=O)N[C@H](C(=O)NCC(=O)N[C@@H](CO)C(=O)N[C@@H](CC(N)=O)C(=O)N[C@H](C(=O)N[C@@H](Cc1ccc(O)cc1)C(N)=O)[C@@H](C)O)C(C)C)[C@@H](C)O
With B1 the “Amylin receptor human EC50” value [1] was 167 pM and the “CTa receptor human EC50” value [2] was 190 pM.

B2: N-alpha-[(S)-4-Carboxy-4-(19-carboxynonadecanoylamino)butyryl]-Glu-[His1,Glu14,His17]-pramlintide (peptide)
peptide: {C20 diacid-γGlu}-EHCNTATCATQRLAEFLHHSSNNFGPILPPTNVGSNTY-NH2
modifications: disulfide 3-8
SMILES: CC[C@H](C)[C@H](NC(=O)[C@@H]1CCCN1C(=O)CNC(=O)[C@H](Cc1ccccc1)NC(=O)[C@H](CC(N)=O)NC(=O)[C@H](CC(N)=O)NC(=O)[C@H](CO)NC(=O)[C@H](CO)NC(=O)[C@H](Cc1c[nH]cn1)NC(=O)[C@H](Cc1c[nH]cn1)NC(=O)[C@H](CC(C)C)NC(=O)[C@H](Cc1ccccc1)NC(=O)[C@H](CCC(=O)O)NC(=O)[C@H](C)NC(=O)[C@H](CC(C)C)NC(=O)[C@H](CCCNC(=N)N)NC(=O)[C@H](CCC(N)=O)NC(=O)[C@@H](NC(=O)[C@H](C)NC(=O)[C@@H]1CSSC[C@H](NC(=O)[C@H](Cc2c[nH]cn2)NC(=O)[C@H](CCC(=O)O)NC(=O)CC[C@H](NC(=O)CCCCCCCCCCCCCCCCCCC(=O)O)C(=O)O)C(=O)N[C@@H](CC(N)=O)C(=O)N[C@@H]([C@@H](C)O)C(=O)N[C@@H](C)C(=O)N[C@@H]([C@@H](C)O)C(=O)N1)[C@@H](C)O)C(=O)N[C@@H](CC(C)C)C(=O)N1CCC[C@H]1C(=O)N1CCC[C@H]1C(=O)N[C@H](C(=O)N[C@@H](CC(N)=O)C(=O)N[C@H](C(=O)NCC(=O)N[C@@H](CO)C(=O)N[C@@H](CC(N)=O)C(=O)N[C@H](C(=O)N[C@@H](Cc1ccc(O)cc1)C(N)=O)[C@@H](C)O)C(C)C)[C@@H](C)O
In the case of B2, the “Amylin receptor human EC50” value [1] is reported as 248 pM and the “CTa receptor human EC50” value [2] is reported as 439 pM.

B3: N-alpha-[(S)-4-Carboxy-4-(19-carboxynonadecanoylamino)butyryl]-Glu-Glu-[Glu14,His17]-pramlintide (peptide)
peptide: {C20 diacid-γGlu}-EEKCNTATCATQRLAEFLHHSSNNFGPILPPTNVGSNTY-NH2
modifications: disulfide 4-9
SMILES: CC[C@H](C)[C@H](NC(=O)[C@@H]1CCCN1C(=O)CNC(=O)[C@H](Cc1ccccc1)NC(=O)[C@H](CC(N)=O)NC(=O)[C@H](CC(N)=O)NC(=O)[C@H](CO)NC(=O)[C@H](CO)NC(=O)[C@H](Cc1c[nH]cn1)NC(=O)[C@H](Cc1c[nH]cn1)NC(=O)[C@H](CC(C)C)NC(=O)[C@H](Cc1ccccc1)NC(=O)[C@H](CCC(=O)O)NC(=O)[C@H](C)NC(=O)[C@H](CC(C)C)NC(=O)[C@H](CCCNC(=N)N)NC(=O)[C@H](CCC(N)=O)NC(=O)[C@@H](NC(=O)[C@H](C)NC(=O)[C@@H]1CSSC[C@H](NC(=O)[C@H](CCCCN)NC(=O)[C@H](CCC(=O)O)NC(=O)[C@H](CCC(=O)O)NC(=O)CC[C@H](NC(=O)CCCCCCCCCCCCCCCCCCC(=O)O)C(=O)O)C(=O)N[C@@H](CC(N)=O)C(=O)N[C@@H]([C@@H](C)O)C(=O)N[C@@H](C)C(=O)N[C@@H]([C@@H](C)O)C(=O)N1)[C@@H](C)O)C(=O)N[C@@H](CC(C)C)C(=O)N1CCC[C@H]1C(=O)N1CCC[C@H]1C(=O)N[C@H](C(=O)N[C@@H](CC(N)=O)C(=O)N[C@H](C(=O)NCC(=O)N[C@@H](CO)C(=O)N[C@@H](CC(N)=O)C(=O)N[C@H](C(=O)N[C@@H](Cc1ccc(O)cc1)C(N)=O)[C@@H](C)O)C(C)C)[C@@H](C)O
With B3 the “Amylin receptor human EC50” value [1] was 402 pM and the “CTa receptor human EC50” value [2] was 798 pM.

B4: N-alpha-[2-(2-{2-[2-(2-{2-[(S)-4-Carboxy-4-(19-carboxyheptadecanoylamino)butyrylamino]ethoxy}ethoxy)acetylamino]ethoxy}ethoxy)acetyl]-[des1,Glu14,His17]-pramlin … (peptide)
peptide: {19‑carboxyheptadecanoyl-γGlu-AEEA-AEEA}-CNTATCATQRLAEFLHHSSNNFGPILPPTNVGSNTY-NH2
modifications: disulfide 1-6; reading uncertain; also: printed as N-alpha-[2-(2-{2-[2-(2-{2-[(S)-4-Carboxy-4-(19-carboxyheptadecanoylamino)butyrylamino]ethoxy}ethoxy)acetylamino]ethoxy}ethoxy)acetyl]-[des1,Glu14,His17]-pramlintide
B4 was tested, and the “Amylin receptor human EC50” value [1] was 334 pM and the “CTa receptor human EC50” value [2] was 672 pM.

B5: N-alpha-[(S)-4-Carboxy-4-(17-carboxyheptadecanoylamino)butyryl]-His-His-[His1,Glu14,His17]-pramlintide (peptide)
peptide: {C18 diacid-γGlu}-HHHCNTATCATQRLAEFLHHSSNNFGPILPPTNVGSNTY-NH2
modifications: disulfide 4-9
SMILES: CC[C@H](C)[C@H](NC(=O)[C@@H]1CCCN1C(=O)CNC(=O)[C@H](Cc1ccccc1)NC(=O)[C@H](CC(N)=O)NC(=O)[C@H](CC(N)=O)NC(=O)[C@H](CO)NC(=O)[C@H](CO)NC(=O)[C@H](Cc1c[nH]cn1)NC(=O)[C@H](Cc1c[nH]cn1)NC(=O)[C@H](CC(C)C)NC(=O)[C@H](Cc1ccccc1)NC(=O)[C@H](CCC(=O)O)NC(=O)[C@H](C)NC(=O)[C@H](CC(C)C)NC(=O)[C@H](CCCNC(=N)N)NC(=O)[C@H](CCC(N)=O)NC(=O)[C@@H](NC(=O)[C@H](C)NC(=O)[C@@H]1CSSC[C@H](NC(=O)[C@H](Cc2c[nH]cn2)NC(=O)[C@H](Cc2c[nH]cn2)NC(=O)[C@H](Cc2c[nH]cn2)NC(=O)CC[C@H](NC(=O)CCCCCCCCCCCCCCCCC(=O)O)C(=O)O)C(=O)N[C@@H](CC(N)=O)C(=O)N[C@@H]([C@@H](C)O)C(=O)N[C@@H](C)C(=O)N[C@@H]([C@@H](C)O)C(=O)N1)[C@@H](C)O)C(=O)N[C@@H](CC(C)C)C(=O)N1CCC[C@H]1C(=O)N1CCC[C@H]1C(=O)N[C@H](C(=O)N[C@@H](CC(N)=O)C(=O)N[C@H](C(=O)NCC(=O)N[C@@H](CO)C(=O)N[C@@H](CC(N)=O)C(=O)N[C@H](C(=O)N[C@@H](Cc1ccc(O)cc1)C(N)=O)[C@@H](C)O)C(C)C)[C@@H](C)O
In the case of B5, the “Amylin receptor human EC50” value [1] is reported as 62.4 pM and the “CTa receptor human EC50” value [2] is reported as 264 pM.

B6: N-alpha-[(S)-4-Carboxy-4-(17-carboxyheptadecanoylamino)butyryl]-His-[His1,Glu14,His17]-pramlintide (peptide)
peptide: {C18 diacid-γGlu}-HHCNTATCATQRLAEFLHHSSNNFGPILPPTNVGSNTY-NH2
modifications: disulfide 3-8
SMILES: CC[C@H](C)[C@H](NC(=O)[C@@H]1CCCN1C(=O)CNC(=O)[C@H](Cc1ccccc1)NC(=O)[C@H](CC(N)=O)NC(=O)[C@H](CC(N)=O)NC(=O)[C@H](CO)NC(=O)[C@H](CO)NC(=O)[C@H](Cc1c[nH]cn1)NC(=O)[C@H](Cc1c[nH]cn1)NC(=O)[C@H](CC(C)C)NC(=O)[C@H](Cc1ccccc1)NC(=O)[C@H](CCC(=O)O)NC(=O)[C@H](C)NC(=O)[C@H](CC(C)C)NC(=O)[C@H](CCCNC(=N)N)NC(=O)[C@H](CCC(N)=O)NC(=O)[C@@H](NC(=O)[C@H](C)NC(=O)[C@@H]1CSSC[C@H](NC(=O)[C@H](Cc2c[nH]cn2)NC(=O)[C@H](Cc2c[nH]cn2)NC(=O)CC[C@H](NC(=O)CCCCCCCCCCCCCCCCC(=O)O)C(=O)O)C(=O)N[C@@H](CC(N)=O)C(=O)N[C@@H]([C@@H](C)O)C(=O)N[C@@H](C)C(=O)N[C@@H]([C@@H](C)O)C(=O)N1)[C@@H](C)O)C(=O)N[C@@H](CC(C)C)C(=O)N1CCC[C@H]1C(=O)N1CCC[C@H]1C(=O)N[C@H](C(=O)N[C@@H](CC(N)=O)C(=O)N[C@H](C(=O)NCC(=O)N[C@@H](CO)C(=O)N[C@@H](CC(N)=O)C(=O)N[C@H](C(=O)N[C@@H](Cc1ccc(O)cc1)C(N)=O)[C@@H](C)O)C(C)C)[C@@H](C)O
With B6 the “Amylin receptor human EC50” value [1] was 59 pM and the “CTa receptor human EC50” value [2] was 258 pM.
